Measurements reported in patent publication US20200282100A1, “Hemostatic Dressings with Self-Assembling Peptide Hydrogels” (3-D Matrix, Ltd., priority 2016, published 2020).

Assay: Congo Red assay of gel formation of peptide solutions in PBS buffer (pH 7.4) with a hemostatic porous dressing
Type: physicochemical
Settings: PBS pH 7.4, compared with pure RADA16 2.5%
Method: A Congo Red assay was performed to assess gel formation of peptide solutions in a PBS buffer solution (pH 7.4) when used with a hemostatic porous dressing. RADA16 2.5% (PuraMatrix®) was plated on a glass slide and also on a hemostatic porous dressing on a glass slide. PuraMatrix® was spread on the surface of the hemostatic porous dressing using a stick. After 30 seconds, 1% Congo Red solution was added around and on top of the gel aliquots and then the excess Congo Red solution was wiped off prior to examination. RADA16 2.5% was also plated on an absorbable gelatin sponge (Surgifoam®, Ethicon) and on an absorbable oxidized regenerated cellulose woven dressing (Surgicel®, Ethicon). Visualization of gel formation determined the success or failure of gelation. […] Specifically, (1) and (2) show pure RADA16 2.5% (PuraMatrix®). In (3), (4), and (5), RADA16 2.5% is shown with absorbable gelatin sponge (Surgifoam®, Ethicon). In (6), (7), and (8), RADA16 2.5% is shown with absorbable oxidized regenerated cellulose woven dressing (Surgicel®, Ethicon).
A Congo Red assay was performed to assess gel formation of peptide solutions in a PBS buffer solution (pH 7.4) when used with a hemostatic porous dressing.
IEIK13 1.3% (pH 3.0) was plated on a glass slide and on a hemostatic porous dressing on a glass slide. […] Visualization of gel formation determined the success or failure of gelation. […]

Sequence: RADARADARADARADA [RADA16 2.5%]
- gel formation (visualization) (on absorbable gelatin sponge (Surgifoam, Ethicon)): gelled
- gel formation (visualization) (on absorbable oxidized regenerated cellulose woven dressing (Surgicel, Ethicon)): gelled
